Data on 12 molecules can be found in US20150344540A1, “NOVEL GLP-1 RECEPTOR AGONISTS WITH CHOLESTEROL EFFLUX ACTIVITY” (NOVO NORDISK A/S, priority 2012, published 2015).

First the molecules themselves.
B1: [Aib2,Gly16,Lys29,Aib30,Leu31,Glu32,Phe33,Leu34,Glu35,Leu36,Leu37]-Exendin-4-(1-37)-peptide amide (peptide)
peptide: H[Aib]EGTFTSDLSKQMEGEAVRLFIEWLKNK[Aib]LEFLELL-NH2
modifications: N-terminus assumed
SMILES: CC[C@H](C)[C@H](NC(=O)[C@H](Cc1ccccc1)NC(=O)[C@H](CC(C)C)NC(=O)[C@H](CCCNC(=N)N)NC(=O)[C@@H](NC(=O)[C@H](C)NC(=O)[C@H](CCC(=O)O)NC(=O)CNC(=O)[C@H](CCC(=O)O)NC(=O)[C@H](CCSC)NC(=O)[C@H](CCC(N)=O)NC(=O)[C@H](CCCCN)NC(=O)[C@H](CO)NC(=O)[C@H](CC(C)C)NC(=O)[C@H](CC(=O)O)NC(=O)[C@H](CO)NC(=O)[C@@H](NC(=O)[C@H](Cc1ccccc1)NC(=O)[C@@H](NC(=O)CNC(=O)[C@H](CCC(=O)O)NC(=O)C(C)(C)NC(=O)[C@@H](N)Cc1c[nH]cn1)[C@@H](C)O)[C@@H](C)O)C(C)C)C(=O)N[C@@H](CCC(=O)O)C(=O)N[C@@H](Cc1c[nH]c2ccccc12)C(=O)N[C@@H](CC(C)C)C(=O)N[C@@H](CCCCN)C(=O)N[C@@H](CC(N)=O)C(=O)N[C@@H](CCCCN)C(=O)NC(C)(C)C(=O)N[C@@H](CC(C)C)C(=O)N[C@@H](CCC(=O)O)C(=O)N[C@@H](Cc1ccccc1)C(=O)N[C@@H](CC(C)C)C(=O)N[C@@H](CCC(=O)O)C(=O)N[C@@H](CC(C)C)C(=O)N[C@@H](CC(C)C)C(N)=O
B2: [His14,Tyr20,Glu23,Val25,Glu34,Lys35,Aib36,Lys37]-GLP-1-(7-37)-peptidyl-Glu-Phe-Leu amide (peptide)
peptide: HAEGTFTHDVSSYYEGEAVKEFIAWLVEK[Aib]KEFL-NH2
modifications: N-terminus assumed
SMILES: CC[C@H](C)[C@H](NC(=O)[C@H](Cc1ccccc1)NC(=O)[C@H](CCC(=O)O)NC(=O)[C@H](CCCCN)NC(=O)[C@@H](NC(=O)[C@H](C)NC(=O)[C@H](CCC(=O)O)NC(=O)CNC(=O)[C@H](CCC(=O)O)NC(=O)[C@H](Cc1ccc(O)cc1)NC(=O)[C@H](Cc1ccc(O)cc1)NC(=O)[C@H](CO)NC(=O)[C@H](CO)NC(=O)[C@@H](NC(=O)[C@H](CC(=O)O)NC(=O)[C@H](Cc1c[nH]cn1)NC(=O)[C@@H](NC(=O)[C@H](Cc1ccccc1)NC(=O)[C@@H](NC(=O)CNC(=O)[C@H](CCC(=O)O)NC(=O)[C@H](C)NC(=O)[C@@H](N)Cc1c[nH]cn1)[C@@H](C)O)[C@@H](C)O)C(C)C)C(C)C)C(=O)N[C@@H](C)C(=O)N[C@@H](Cc1c[nH]c2ccccc12)C(=O)N[C@@H](CC(C)C)C(=O)N[C@H](C(=O)N[C@@H](CCC(=O)O)C(=O)N[C@@H](CCCCN)C(=O)NC(C)(C)C(=O)N[C@@H](CCCCN)C(=O)N[C@@H](CCC(=O)O)C(=O)N[C@@H](Cc1ccccc1)C(=O)N[C@@H](CC(C)C)C(N)=O)C(C)C
B3: [Aib8,Glu23,Val25,His31,Glu34,Lys35,Aib36,Lys37]-GLP-1-(7-37)-peptidyl-Glu-Phe-Leu amide (peptide)
peptide: H[Aib]EGTFTSDVSSYLEGEAVKEFIAHLVEK[Aib]KEFL-NH2
modifications: N-terminus assumed
SMILES: CC[C@H](C)[C@H](NC(=O)[C@H](Cc1ccccc1)NC(=O)[C@H](CCC(=O)O)NC(=O)[C@H](CCCCN)NC(=O)[C@@H](NC(=O)[C@H](C)NC(=O)[C@H](CCC(=O)O)NC(=O)CNC(=O)[C@H](CCC(=O)O)NC(=O)[C@H](CC(C)C)NC(=O)[C@H](Cc1ccc(O)cc1)NC(=O)[C@H](CO)NC(=O)[C@H](CO)NC(=O)[C@@H](NC(=O)[C@H](CC(=O)O)NC(=O)[C@H](CO)NC(=O)[C@@H](NC(=O)[C@H](Cc1ccccc1)NC(=O)[C@@H](NC(=O)CNC(=O)[C@H](CCC(=O)O)NC(=O)C(C)(C)NC(=O)[C@@H](N)Cc1c[nH]cn1)[C@@H](C)O)[C@@H](C)O)C(C)C)C(C)C)C(=O)N[C@@H](C)C(=O)N[C@@H](Cc1c[nH]cn1)C(=O)N[C@@H](CC(C)C)C(=O)N[C@H](C(=O)N[C@@H](CCC(=O)O)C(=O)N[C@@H](CCCCN)C(=O)NC(C)(C)C(=O)N[C@@H](CCCCN)C(=O)N[C@@H](CCC(=O)O)C(=O)N[C@@H](Cc1ccccc1)C(=O)N[C@@H](CC(C)C)C(N)=O)C(C)C
B4: [Tyr12,Asn14,Thr17,Glu18,Glu23,Val25,Glu34,Lys35,Aib36,Lys37]-GLP-1-(7-37)-peptidyl-Glu-Phe-Leu amide (peptide)
peptide: HAEGTYTNDVTEYLEGEAVKEFIAWLVEK[Aib]KEFL-NH2
modifications: N-terminus assumed
SMILES: CC[C@H](C)[C@H](NC(=O)[C@H](Cc1ccccc1)NC(=O)[C@H](CCC(=O)O)NC(=O)[C@H](CCCCN)NC(=O)[C@@H](NC(=O)[C@H](C)NC(=O)[C@H](CCC(=O)O)NC(=O)CNC(=O)[C@H](CCC(=O)O)NC(=O)[C@H](CC(C)C)NC(=O)[C@H](Cc1ccc(O)cc1)NC(=O)[C@H](CCC(=O)O)NC(=O)[C@@H](NC(=O)[C@@H](NC(=O)[C@H](CC(=O)O)NC(=O)[C@H](CC(N)=O)NC(=O)[C@@H](NC(=O)[C@H](Cc1ccc(O)cc1)NC(=O)[C@@H](NC(=O)CNC(=O)[C@H](CCC(=O)O)NC(=O)[C@H](C)NC(=O)[C@@H](N)Cc1c[nH]cn1)[C@@H](C)O)[C@@H](C)O)C(C)C)[C@@H](C)O)C(C)C)C(=O)N[C@@H](C)C(=O)N[C@@H](Cc1c[nH]c2ccccc12)C(=O)N[C@@H](CC(C)C)C(=O)N[C@H](C(=O)N[C@@H](CCC(=O)O)C(=O)N[C@@H](CCCCN)C(=O)NC(C)(C)C(=O)N[C@@H](CCCCN)C(=O)N[C@@H](CCC(=O)O)C(=O)N[C@@H](Cc1ccccc1)C(=O)N[C@@H](CC(C)C)C(N)=O)C(C)C
B5: [Aib8,Glu23,Val25,Glu34,Lys35,Aib36,Lys37]-GLP-1-(7-37)-peptide amide (peptide)
peptide: H[Aib]EGTFTSDVSSYLEGEAVKEFIAWLVEK[Aib]K-NH2
modifications: N-terminus assumed
SMILES: CC[C@H](C)[C@H](NC(=O)[C@H](Cc1ccccc1)NC(=O)[C@H](CCC(=O)O)NC(=O)[C@H](CCCCN)NC(=O)[C@@H](NC(=O)[C@H](C)NC(=O)[C@H](CCC(=O)O)NC(=O)CNC(=O)[C@H](CCC(=O)O)NC(=O)[C@H](CC(C)C)NC(=O)[C@H](Cc1ccc(O)cc1)NC(=O)[C@H](CO)NC(=O)[C@H](CO)NC(=O)[C@@H](NC(=O)[C@H](CC(=O)O)NC(=O)[C@H](CO)NC(=O)[C@@H](NC(=O)[C@H](Cc1ccccc1)NC(=O)[C@@H](NC(=O)CNC(=O)[C@H](CCC(=O)O)NC(=O)C(C)(C)NC(=O)[C@@H](N)Cc1c[nH]cn1)[C@@H](C)O)[C@@H](C)O)C(C)C)C(C)C)C(=O)N[C@@H](C)C(=O)N[C@@H](Cc1c[nH]c2ccccc12)C(=O)N[C@@H](CC(C)C)C(=O)N[C@H](C(=O)N[C@@H](CCC(=O)O)C(=O)N[C@@H](CCCCN)C(=O)NC(C)(C)C(=O)N[C@@H](CCCCN)C(N)=O)C(C)C
B6: [Aib8,Glu22,Glu23,Val25,Glu34,Lys35,Val36,Lys37]-GLP-1-(7-37)-peptidyl-Glu-Phe-Leu amide (peptide)
peptide: H[Aib]EGTFTSDVSSYLEEEAVKEFIAWLVEKVKEFL-NH2
modifications: N-terminus assumed
SMILES: CC[C@H](C)[C@H](NC(=O)[C@H](Cc1ccccc1)NC(=O)[C@H](CCC(=O)O)NC(=O)[C@H](CCCCN)NC(=O)[C@@H](NC(=O)[C@H](C)NC(=O)[C@H](CCC(=O)O)NC(=O)[C@H](CCC(=O)O)NC(=O)[C@H](CCC(=O)O)NC(=O)[C@H](CC(C)C)NC(=O)[C@H](Cc1ccc(O)cc1)NC(=O)[C@H](CO)NC(=O)[C@H](CO)NC(=O)[C@@H](NC(=O)[C@H](CC(=O)O)NC(=O)[C@H](CO)NC(=O)[C@@H](NC(=O)[C@H](Cc1ccccc1)NC(=O)[C@@H](NC(=O)CNC(=O)[C@H](CCC(=O)O)NC(=O)C(C)(C)NC(=O)[C@@H](N)Cc1c[nH]cn1)[C@@H](C)O)[C@@H](C)O)C(C)C)C(C)C)C(=O)N[C@@H](C)C(=O)N[C@@H](Cc1c[nH]c2ccccc12)C(=O)N[C@@H](CC(C)C)C(=O)N[C@H](C(=O)N[C@@H](CCC(=O)O)C(=O)N[C@@H](CCCCN)C(=O)N[C@H](C(=O)N[C@@H](CCCCN)C(=O)N[C@@H](CCC(=O)O)C(=O)N[C@@H](Cc1ccccc1)C(=O)N[C@@H](CC(C)C)C(N)=O)C(C)C)C(C)C

Where no end group is shown, it is not given here. [ ]: non-standard residue; d: D form. Aib = CC(C)(N)C(=O)O

The assay has as its target human GLP-1 receptor (human, UniProt P43220). Nature of the assay: cell-based or functional assay.
For HGEGTFTSDVSSYLEEEAVKEFIAWLVEKVKEFL-NH2 [[Gly8,Glu22,Glu23,Val25,Glu34,Lys35,Val36,Lys37]-GLP-1-(7-37)-peptidyl-Glu-Phe-Leu amide], the “CRE luciferase EC50, 0% HSA” value turned out to be 0.974 nM and the “CRE luciferase EC50, 1% HSA” value came out at 0.302 nM.

On to HAEGTFTSDVSSYLEEEAVKEFIAWLVEKVKEFL-NH2 [[Glu22,Glu23,Val25,Glu34,Lys35,Val36,Lys37]-GLP-1-(7-37)-peptidyl-Glu-Phe-Leu amide], for which the “CRE luciferase EC50, 0% HSA” value is 0.299 nM and the “CRE luciferase EC50, 1% HSA” value was found to be 0.114 nM.

Take B1: the “CRE luciferase EC50, 0% HSA” value was 1.51 nM and the “CRE luciferase EC50, 1% HSA” value came out at 0.552 nM.

For HAEGTFTSDVSSYLEGEAVREFIAWLVHRVREFLEK [[Glu23,Val25,Arg26,His34,Arg35,Val36,Arg37]-GLP-1-(7-37)-peptidyl-Glu-Phe-Leu-Glu-Lys], the “CRE luciferase EC50, 0% HSA” value came to 0.039 nM and the “CRE luciferase EC50, 1% HSA” value stood at 0.014 nM.

With B2, the “CRE luciferase EC50, 0% HSA” value is 0.338 nM and the “CRE luciferase EC50, 1% HSA” value was determined as 0.101 nM.

B3: the “CRE luciferase EC50, 0% HSA” value amounted to 0.066 nM and the “CRE luciferase EC50, 1% HSA” value worked out at 0.02 nM.

As to B4, the “CRE luciferase EC50, 0% HSA” value amounted to 0.202 nM and the “CRE luciferase EC50, 1% HSA” value turned out to be 0.104 nM.

Regarding HADGTLTSDISSYLEGEAVKEFIAWLVEK[Aib]KEFL-NH2 [[Asp9,Leu12,Ile16,Glu23,Val25,Glu34,Lys35,Aib36,Lys37]-GLP-1-(7-37)-peptidyl-Glu-Phe-Leu amide], the “CRE luciferase EC50, 0% HSA” value amounted to 0.222 nM and the “CRE luciferase EC50, 1% HSA” value was 0.062 nM.

With HAEGTFTSDVSSYLEGQAAKEFIAWLVEKVHEFL-NH2 [[Glu34,Lys35,Val36,His37]-GLP-1-(7-37)-peptidyl-Glu-Phe-Leu amide], the “CRE luciferase EC50, 0% HSA” value came to 0.107 nM and the “CRE luciferase EC50, 1% HSA” value stood at 0.03 nM.

As for B5, the “CRE luciferase EC50, 0% HSA” value came out at 0.015 nM and the “CRE luciferase EC50, 1% HSA” value was found to be 0.004 nM.

For the molecule HAEGTFTSDVSSYLEGQAAKEFIAWLVEHVKEFL-NH2 [[Glu34,His35,Val36,Lys37]-GLP-1-(7-37)-peptidyl-Glu-Phe-Leu amide], the “CRE luciferase EC50, 0% HSA” value came to 0.103 nM and the “CRE luciferase EC50, 1% HSA” value is 0.024 nM.

Regarding B6, the “CRE luciferase EC50, 0% HSA” value was 0.116 nM and the “CRE luciferase EC50, 1% HSA” value was found to be 0.034 nM.
